Four substances from EP0672680A1 can be followed below.

Assay [1] addresses bovine lung-derived ANP receptor (bovine). The assay can be described thus: competition radioligand binding: displacement of 125I-rat ANP from bovine lung membrane fraction, filter assay. For orientation: Displacement assays read how much labelled ligand stays bound in the presence of the test substance.
The target in assay [2] is BK receptor derived from guinea pig ilea (guinea pig). The assay can be described thus: competition radioligand binding: inhibition of 3H-BK (200 pM) binding to guinea pig ileum membrane fraction; test compound at 10^-8 M.
The target is the same in assay [3]. Nature of the assay: competition radioligand binding: inhibition of 3H-BK (200 pM) binding to guinea pig ileum membrane fraction; test compound at 10^-7 M.

Sequence of bovine lung-derived ANP receptor (bovine) (P10730 42-537): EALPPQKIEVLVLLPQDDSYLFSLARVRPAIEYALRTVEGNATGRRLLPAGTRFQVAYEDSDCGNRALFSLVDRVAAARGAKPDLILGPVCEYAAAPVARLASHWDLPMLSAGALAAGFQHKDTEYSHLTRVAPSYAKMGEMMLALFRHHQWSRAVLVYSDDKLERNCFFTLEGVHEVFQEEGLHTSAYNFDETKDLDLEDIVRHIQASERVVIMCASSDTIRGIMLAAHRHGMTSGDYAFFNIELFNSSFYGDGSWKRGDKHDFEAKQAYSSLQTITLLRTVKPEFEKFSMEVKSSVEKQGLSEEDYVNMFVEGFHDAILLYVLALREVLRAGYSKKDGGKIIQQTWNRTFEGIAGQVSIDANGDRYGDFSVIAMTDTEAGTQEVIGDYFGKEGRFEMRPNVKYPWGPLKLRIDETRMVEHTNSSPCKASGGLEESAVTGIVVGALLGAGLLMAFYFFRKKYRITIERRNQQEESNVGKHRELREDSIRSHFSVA
Sequence of BK receptor derived from guinea pig ilea (guinea pig) (O70526 whole entry): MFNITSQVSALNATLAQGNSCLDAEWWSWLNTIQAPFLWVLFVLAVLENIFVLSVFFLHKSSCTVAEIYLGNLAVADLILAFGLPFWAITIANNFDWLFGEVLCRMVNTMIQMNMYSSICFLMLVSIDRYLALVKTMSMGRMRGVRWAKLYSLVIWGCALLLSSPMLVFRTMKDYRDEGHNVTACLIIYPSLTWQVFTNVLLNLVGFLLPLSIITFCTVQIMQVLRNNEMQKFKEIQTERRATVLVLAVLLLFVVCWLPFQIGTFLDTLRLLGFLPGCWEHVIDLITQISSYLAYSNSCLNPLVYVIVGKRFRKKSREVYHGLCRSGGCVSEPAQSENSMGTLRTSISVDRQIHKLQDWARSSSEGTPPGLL

As usually defined, the IC50 is the concentration that gives 50% inhibition. Low values mean higher potency, high ones lower potency. The substance “compound (g) (H-Phe-Gly-Gly-Arg-Ile-Asp-Arg-Ile-NH2) (peptide)” registered an IC50 in assay [1] of 3.5 nM.
The same measure, in the same setting: in the case of “compound (h) (H-Ala-Phe-Gly-Gly-Arg-Ile-Asp-Arg-Ile-Gly-Ala-Ala-NH2) (peptide)” it was 2.5 nM; in that of “compound (k) (H-Phe-Gly-Gly-Arg-(N-Me)Ile-Asp-Arg-Ile-NH2) (peptide)”, 21 nM.
In the case of “compound (m) (H-D-Arg-Arg-Pro-Hyp-Gly-Phe-Ser-D-Phe-Leu-Arg-OH) (peptide)”, the figures for the Percentage inhibition (%) in assay [2] and in assay [3] were 20% and 68%, respectively.
